Laboratory results taken from patent US20160228570A1 (QUEEN MARY AND WESTFIELD COLLEGE, published 2016).
One block for each binder: values may come before it.

Key:
[1] = molecular target: T1, free radical modified BSA (bovine, UniProt P02769 25-607, modified as CII (OH, HOCl, ONOO or 2M ribose); residues not stated); experiment: ELISA (data not shown)
T1 construct: Written as printed, as one entry

[2] = molecular target: T2, native bovine serum albumin (bovine, UniProt P02769 25-607); experiment: ELISA (data not shown)
T2 construct: Control antigen; also called BSA; native BSA
T2 sequence (P02769 25-607 limits assumed): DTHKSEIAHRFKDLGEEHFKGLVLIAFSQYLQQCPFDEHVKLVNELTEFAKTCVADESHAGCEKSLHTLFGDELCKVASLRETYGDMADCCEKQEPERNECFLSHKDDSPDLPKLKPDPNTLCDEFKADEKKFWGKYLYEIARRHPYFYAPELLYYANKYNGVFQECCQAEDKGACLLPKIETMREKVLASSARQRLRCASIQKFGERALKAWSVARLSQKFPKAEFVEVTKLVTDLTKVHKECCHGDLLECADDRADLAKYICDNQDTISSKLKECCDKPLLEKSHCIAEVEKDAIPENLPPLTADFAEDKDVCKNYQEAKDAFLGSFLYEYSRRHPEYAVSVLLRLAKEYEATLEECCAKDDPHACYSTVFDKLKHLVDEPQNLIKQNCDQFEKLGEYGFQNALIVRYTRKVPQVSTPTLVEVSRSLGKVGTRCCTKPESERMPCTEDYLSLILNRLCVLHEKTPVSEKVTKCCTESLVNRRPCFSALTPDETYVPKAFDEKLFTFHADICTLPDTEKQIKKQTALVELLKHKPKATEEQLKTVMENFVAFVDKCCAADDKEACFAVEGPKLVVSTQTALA

[3] = molecular target: T3, native non-modified collagen type II (CII) (bovine, UniProt P02459 201-1214); experiment: ELISA, purified scFv on coated antigen
T3 construct: also called native CII
T3 sequence (P02459 201-1214): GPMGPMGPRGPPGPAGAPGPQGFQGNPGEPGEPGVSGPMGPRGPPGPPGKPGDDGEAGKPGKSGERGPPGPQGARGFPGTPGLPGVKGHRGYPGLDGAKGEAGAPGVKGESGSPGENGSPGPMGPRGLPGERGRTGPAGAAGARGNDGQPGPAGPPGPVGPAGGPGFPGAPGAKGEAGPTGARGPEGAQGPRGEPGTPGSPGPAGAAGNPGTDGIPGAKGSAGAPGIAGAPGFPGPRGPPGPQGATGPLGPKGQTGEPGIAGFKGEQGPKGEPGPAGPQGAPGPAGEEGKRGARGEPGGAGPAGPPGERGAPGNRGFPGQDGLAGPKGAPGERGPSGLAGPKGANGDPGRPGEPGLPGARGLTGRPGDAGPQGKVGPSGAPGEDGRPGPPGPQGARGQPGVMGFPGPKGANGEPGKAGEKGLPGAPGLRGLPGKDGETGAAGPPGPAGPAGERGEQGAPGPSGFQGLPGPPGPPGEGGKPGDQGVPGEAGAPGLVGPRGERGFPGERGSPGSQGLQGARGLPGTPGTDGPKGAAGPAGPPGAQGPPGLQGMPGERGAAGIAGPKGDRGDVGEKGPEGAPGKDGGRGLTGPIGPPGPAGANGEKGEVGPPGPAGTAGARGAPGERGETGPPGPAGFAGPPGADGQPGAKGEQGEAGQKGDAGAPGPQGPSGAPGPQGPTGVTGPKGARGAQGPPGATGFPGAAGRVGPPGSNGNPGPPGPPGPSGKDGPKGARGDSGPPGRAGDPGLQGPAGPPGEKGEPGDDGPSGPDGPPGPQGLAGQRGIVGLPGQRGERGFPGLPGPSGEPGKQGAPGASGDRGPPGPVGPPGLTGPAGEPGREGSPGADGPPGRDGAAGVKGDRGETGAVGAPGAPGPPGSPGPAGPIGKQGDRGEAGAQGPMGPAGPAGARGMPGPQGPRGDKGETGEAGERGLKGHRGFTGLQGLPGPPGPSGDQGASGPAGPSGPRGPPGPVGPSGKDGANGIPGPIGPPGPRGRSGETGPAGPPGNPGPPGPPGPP
Procedure: (§1) Screening for positive anti-modified CII phage clones was first performed by enzyme-linked immunosorbent assay (ELISA), as previously described (Harrison J. L, 1996). Microtiter plate (Nunc, Paisley, UK) wells were coated with 10 μg/ml native or modified CII and incubated with 100 μl phage suspension for 90 minutes. In addition, native and modified BSA were used as negative control. After removal of the supernatants, the amount of bound phage was determined using peroxidase-labeled anti-M13 antibodies (GE Healthcare: Ltd, Little Chalfont, Buckinghamshire) and developed by using 100 mM 3,3′5,5′ tetramethylbenzidine (TMB) as substrate. The reaction was monitored in an ELISA reader at 450 nm with a reference wavelength of 650 nm using GENios plate reader (TECAN, Theale Court, Reading UK) and Magellan software (TECAN, Theale Court, Reading UK)
(§2) The reactive phage clones obtained from E. coli TG-1 bacteria were used to infect E. coli HB2151 non-suppressor bacterial strain to obtain soluble scFv. […] Binding of purified scFv to modified CII was first analyzed by ELISA as above except that mouse anti-myc tag antibody (Santa Cruz Biotechnology, INC, Wembley, UK) followed by anti-mouse-HRP conjugate (Sigma, Dorset, UK) were used to probe bound scFv.

[4] = molecular target: T4, HOCl modified CII (bovine, UniProt P02459 201-1214, modified with HOCl; residues not stated); experiment: ELISA, purified scFv on coated antigen
T4 construct: also called HOCl-CII; HOCl-Collagen II
T4 sequence (P02459 201-1214): as above
Procedure: as §1, §2

[5] = molecular target: T5, ribose-modified CII (bovine, UniProt P02459 201-1214, glycated with 2M ribose, overnight at 37 C; residues not stated); experiment: ELISA, purified scFv on coated antigen
T5 construct: also called Ribose-CII; glycated CII
T5 sequence (P02459 201-1214): as above
Procedure: as §1, §2

[6] = molecular target: T6, peroxynitrated CII (bovine, UniProt P02459 201-1214, modified with peroxynitrite (ONOO); residues not stated); experiment: ELISA, purified scFv on coated antigen
T6 construct: also called CII modified with ONOO; peroxynitrite-modified CII
T6 sequence (P02459 201-1214): as above
Procedure: as §1, §2

T1 sequence (P02769 25-607 limits assumed): as the sequence (P02769 25-607 limits assumed) above

binding result [1]: no binding
binding result [2]: no binding
B1: scFv 6-11D (scFv, not shown: small tags and cut ends)
scFv: EVQLLESGGGLVQPGGSLRLSCAASGFTFSSYAMSWVRQAPGKGLEWVSSIDTGGSYTDYADSVKGRFTISRDNSKNTLYLQMNSLRAEDTAVYYCAKSYTTFDYWGQGTLVTVSSGGGGSGGGGSGGGGSTDIQMTQSPSSLSASVGDRVTITCRASQSISSYLNWYQQKPGKAPKLLIYSASYLQSGVPSRFSGSGSGTDFTLTISSLQPEDFATYYCQQGSNSPTTFGQGTKVEIKR
notes: also called clone 6-11D; 4-5H

binding result [3]: no binding
binding result [4]: no binding
binding result [5]: no binding
binding result [6]: no binding
binding result [1]: no binding
binding result [2]: no binding
B2: scFv 12E (scFv, not shown: small tags and cut ends)
scFv: EVQLLESGGGLVQPGGSLRLSCAASGFTFSSYAMSWVRQAPGKGLEWVSSINDSGTTTYYADSVKGRFTISRDNSKNTLYLQMNSLRAEDTAVYYCAKNYSAFDYWGQGTLVTVSSGGGGSGGGGSGGGGSTDIQMTQSPSSLSASVGDRVTITCRASQSISSYLNWYQQKPGKAPKLLIYAASDLQSGVPSRFSGSGSGTDFTLTISSLQPEDFATYYCQQSDSAPTTFGQGTKVEIKR
notes: Purified soluble scFv; also called clone 12E

binding result [1]: no binding
binding result [2]: no binding
B3: scFv 1-11E (scFv, not shown: large carriers; small tags and cut ends)
scFv: EVQLLESGGGLVQPGGSLRLSCAASGFTFSSYAMSWVRQAPGKGLEWVSSIDDSGATTYYADSVKGRFTISRDNSKNTLYLQMNSLRAEDTAVYYCAKNYSSFDYWGQGTLVTVSSGGGGSGGGGSGGGGSTDIQMTQSPSSLSASVGDRVTITCRASQSISSYLNWYQQKPGKAPKLLIYYASSLQSGVPSRFSGSGSGTDFTLTISSLQPEDFATYYCQQAANYPTTFGQGTKVEIK
notes: its first MA and last DI may come from cloning into the fusion; also called clone 1-11E; 1-2F
